Test results published in patent US9345743B2, “Agent for promoting proliferation of bifidobacteria” (MORINAGA MILK INDUSTRY CO., LTD., priority 2011, dated 2016).

Assays:
Assay in all cases: Bifidobacterium proliferation promoting activity, turbidity at 630 nm after 16 h anaerobic culture in MRS medium
Type in all cases: cell-based
Details in all cases: 37° C.
[1] = tested on: Bifidobacterium infantis ATCC 15697
Experimental: (§1) A 9.375 μM aqueous solution of each peptide was adjusted to pH 6.5 with an HCl aqueous solution, and subjected to filtration sterilization using a 0.22-μm membrane. Each peptide solution was diluted with dilution water to obtain 9.375 μM, 3.125 μM, 0.9375 μM, and 0.3125 μM sample solutions. As the dilution water, purified water adjusted to pH 6.5 with an HCl solution and sterilized at 115° C. for 15 minutes was used.
(§2) Bifidobacterium proliferation promoting activities of the aforementioned peptides were evaluated as follows.
(§3) The bifidobacteria used for the experiment were as follows. These strains can be obtained from ATCC (American Type Culture Collection, http://www.atcc.org/). • Bifidobacterium infantis ATCC 15697^T • Bifidobacterium breve ATCC 15700^T • Bifidobacterium bifidum ATCC 29521^T
(§4) A cell suspension of each strain (100 μL) cryopreserved in a 10% skim milk medium was added to the MRS liquid medium (3 mL), and culture was performed at 37° C. for 16 hours under an anaerobic condition. The culture medium (100 μL) was added to the MRS liquid medium (3 mL). The MRS liquid medium was prepared by dissolving Difco Lactobacilli MRS Broth (5.5 g, BD, “Difco” is a registered trademark of Difco Laboratories, Incorporated), and L-cysteine monohydrochloride monohydrate (50 mg, Wako Pure Chemical Industries, Co., Ltd.) in pure water so as to obtain a final volume of 100 mL, adjusting the solution to pH 6.5 with an HCl aqueous solution, and sterilizing the solution at 115° C. for 15 minutes. Further, a concentrated medium containing the components at twofold concentrations was prepared in the same manner as described above, except that Difco Lactobacilli MRS Broth and L-cysteine monohydrochloride monohydrate were used in amounts of 11 g and 100 mg, respectively.
(§5) The aforementioned culture medium was diluted with the MRS liquid medium so as to obtain a turbidity of 0.8 measured at a wavelength of 630 nm. This diluted culture medium was further diluted 100 times with the MRS liquid medium. The obtained diluted culture medium is referred to as 1% diluted culture medium.
(§6) Anaerobic culture was performed at 37° C. for 16 hours in a mixture of 100 μL of the twofold concentrated culture medium, 80 μL of a sample solution or the dilution water, and 20 μL of the 1% diluted culture medium (inoculation volume was 0.1%) or the MRS liquid medium (inoculation volume was 0%) on a 96-well plate (FALCON 353072). The final concentration of the peptide in the mixture was 3.75 μM, 1.25 μM, 0.375 μM, 0.125 μM, or 0 μM.
(§7) After the culture, turbidity of each culture medium was measured at a wavelength of 630 nm, and the proliferation promoting ratio (%) was calculated in accordance with the following equation. Proliferation promoting ratio (%)=(ODS1−ODS0)/(ODC1−ODC0)×100−100
(§8) ODS1: Turbidity observed after culture performed at a sample concentration of 3.75 to 0.125 μM and inoculation volume of 0.1% for 16 hours
(§9) ODS0: Turbidity observed after culture performed at a sample concentration of 3.75 to 0.125 μM and inoculation volume of 0% for 16 hours
(§10) ODC0: Turbidity observed after culture performed at a sample concentration of 0 μM and inoculation volume of 0% for 16 hours
(§11) Bifidobacterium proliferation promoting activities of the aforementioned peptides were evaluated in the same manner as that of Example 1.

[2] = tested on: Bifidobacterium bifidum ATCC 29521
Experimental: as §1, §2, §3, §4, §5, §6, §7, §8, §9, §10, §11

[3] = tested on: Bifidobacterium breve ATCC 15700
Experimental: as §1, §2, §3, §4, §5, §6, §7, §8, §9, §10, §11

B1: bovine lactoferrin (protein, UniProt P24627 20-708, looked up)
Lactotransferrin: APRKNVRWCTISQPEWFKCRRWQWRMKKLGAPSITCVRRAFALECIRAIAEKKADAVTLDGGMVFEAGRDPYKLRPVAAEIYGTKESPQTHYYAVAVVKKGSNFQLDQLQGRKSCHTGLGRSAGWIIPMGILRPYLSWTESLEPLQGAVAKFFSASCVPCIDRQAYPNLCQLCKGEGENQCACSSREPYFGYSGAFKCLQDGAGDVAFVKETTVFENLPEKADRDQYELLCLNNSRAPVDAFKECHLAQVPSHAVVARSVDGKEDLIWKLLSKAQEKFGKNKSRSFQLFGSPPGQRDLLFKDSALGFLRIPSKVDSALYLGSRYLTTLKNLRETAEEVKARYTRVVWCAVGPEEQKKCQQWSQQSGQNVTCATASTTDDCIVLVLKGEADALNLDGGYIYTAGKCGLVPVLAENRKSSKHSSLDCVLRPTEGYLAVAVVKKANEGLTWNSLKDKKSCHTAVDRTAGWNIPMGLIVNQTGSCAFDEFFSQSCAPGADPKSRLCALCAGDDQGLDKCVPNSKEKYYGYTGAFRCLAEDVGDVAFVKNDTVWENTNGESTADWAKNLNREDFRLLCLDGTRKPVTEAQSCHLAVAPNHAVVSRSDRAAHVKQVLLHQQALFGKNGKNCPDKFCLFKSETKNLLFNDNTECLAKLGGRPTYEEYLGTEYVTAIANLKKCSTSPLLEACAFLTR
[1]; B. infantis ATCC 15697, 0.125 μM
  Proliferation promoting ratio (%): 1%
[1]; B. infantis ATCC 15697, 0.375 μM
  Proliferation promoting ratio (%): 1%
[1]; B. infantis ATCC 15697, 1.25 μM
  Proliferation promoting ratio (%): 13%
[1]; B. infantis ATCC 15697, 3.75 μM
  Proliferation promoting ratio (%): 23%
[2]; B. bifidum ATCC 29521, 0.125 μM
  Proliferation promoting ratio (%): 8%
[2]; B. bifidum ATCC 29521, 0.375 μM
  Proliferation promoting ratio (%): 8%
[2]; B. bifidum ATCC 29521, 1.25 μM
  Proliferation promoting ratio (%): 10%
[2]; B. bifidum ATCC 29521, 3.75 μM
  Proliferation promoting ratio (%): 12%
[3]; B. breve ATCC 15700, 0.125 μM
  Proliferation promoting ratio (%): 2%
[3]; B. breve ATCC 15700, 0.375 μM
  Proliferation promoting ratio (%): 4%
[3]; B. breve ATCC 15700, 1.25 μM
  Proliferation promoting ratio (%): 8%
[3]; B. breve ATCC 15700, 3.75 μM
  Proliferation promoting ratio (%): 21%
